Reference: patent US20260049138A1 (Chugai, published 2026)
Changes are numbered by the printed parent chain. Names may count otherwise.

T1: human CD154 (human, UniProt P29965 113-261, limits assumed, biotin-labeled)
T1 construct: also called biotin-labeled human CD154; biotinylated human CD154
T1 sequence (looked up): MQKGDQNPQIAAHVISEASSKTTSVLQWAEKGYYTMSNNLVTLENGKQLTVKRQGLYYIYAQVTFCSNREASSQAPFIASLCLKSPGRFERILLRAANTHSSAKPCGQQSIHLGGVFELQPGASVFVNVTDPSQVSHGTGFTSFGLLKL

B1: 154R4B07#1 one-arm antibody (antibody, human IgG1, kappa, L234A L235A, N297A)
heavy: QVQLVESGGGLVQPGRSLRLSCAASGFTFSNAWMHWVRQAPGKGLEWVAQIKDRGNNYAAYYAESVKGRFTISRDDSKNSIYLQMNSLKTEDTAVYYCRYVHYGSYFFASFYFGVDIWGQGTTVTVSSASTKGPSVFPLAPSSKSTSGGTAALGCLVKDYFPEPVTVSWNSGALTSGVHTFPAVLQSSGLYSLSSVVTVPSSSLGTQTYICNVNHKPSNTKVDKKVEPKSCDKTHTCPPCPAPEAAGGPSVFLFPPKPKDTLMISRTPEVTCVVVDVSHEDPEVKFNWYVDGVEVHNAKTKPREEQYASTYRVVSVLTVLHQDWLNGKEYKCKVSNKALPAPIEKTISKAKGQPREPQVYTLPPSRCELTKNQVSLSCAVKGFYPSDIAVEWESNGQPENNYKTTPPVLDSDGSFFLVSKLTVDKSRWQQGNVFSCSVMHEALHNHYTQKSLSLSPDYKDDDDK
chain: EPKSSDKTHTCPPCPAPELLGGPSVFLFPPKPKDTLMISRTPEVTCVVVDVSHEDPEVKFNWYVDGVEVHNAKTKPREEQYNSTYRVVSVLTVLHQDWLNGKEYKCKVSNKALPAPIEKTISKAKGQPREPQVCTLPPSRDELTKNQVSLWCLVKGFYPSDIAVEWESNGQPENNYKTTPPVLDSDGSFFLYSKLTVDKSRWQQGNVFSCSVMHEALHNRYTQKSLSLSP
light: DIVMTQSPLSLPVTPGEPASISCRSSQSLVHSNRNTYLHWYQQKPGQAPRLLIYKVSNRFSGVPDRFSGSGSGTDFTLKISRVEAEDVGVYYCGQGTQVPYTFGQGTKLEIKRTVAAPSVFIFPPSDEQLKSGTASVVCLLNNFYPREAKVQWKVDNALQSGNSQESVTEQDSKDSTYSLSSTLTLSKADYEKHKVYACEVTHQGLSSPVTKSFNRGEC
notes: As m48
B2: 154R3A01#2 one-arm antibody (antibody, human IgG1, kappa, L234A L235A, N297A)
heavy: QVQLVESGGGLVQPGRSLRLSCAASGFTFSNAWMHWVRQAPGKGLEWVAQIKDRVNQYANYYAESVKGRLTISRDDSKNSIYLQMNSLKTEDTAVYYCRYVHYGLTGYFSGQGGVDAWGQGTTVTVSSASTKGPSVFPLAPSSKSTSGGTAALGCLVKDYFPEPVTVSWNSGALTSGVHTFPAVLQSSGLYSLSSVVTVPSSSLGTQTYICNVNHKPSNTKVDKKVEPKSCDKTHTCPPCPAPEAAGGPSVFLFPPKPKDTLMISRTPEVTCVVVDVSHEDPEVKFNWYVDGVEVHNAKTKPREEQYASTYRVVSVLTVLHQDWLNGKEYKCKVSNKALPAPIEKTISKAKGQPREPQVYTLPPSRCELTKNQVSLSCAVKGFYPSDIAVEWESNGQPENNYKTTPPVLDSDGSFFLVSKLTVDKSRWQQGNVFSCSVMHEALHNHYTQKSLSLSPDYKDDDDK
chain: B1 chain
light: B1 light
notes: As m48
B3: CE115HA000 Y100W one-arm antibody (antibody, human IgG1, kappa, L234A L235A, N297A, name in Kabat numbering)
heavy: QVQLVESGGGVVQPGRSLRLSCAASGFTFSNAWMHWVRQAPGKGLEWVAQIKAKSNNYATYYAESVKGRFTISRDDSKNSLYLQMNSLKTEDTAVYYCRYVHYGAWYGVDAWGQGTTVTVSSASTKGPSVFPLAPSSKSTSGGTAALGCLVKDYFPEPVTVSWNSGALTSGVHTFPAVLQSSGLYSLSSVVTVPSSSLGTQTYICNVNHKPSNTKVDKKVEPKSCDKTHTCPPCPAPEAAGGPSVFLFPPKPKDTLMISRTPEVTCVVVDVSHEDPEVKFNWYVDGVEVHNAKTKPREEQYASTYRVVSVLTVLHQDWLNGKEYKCKVSNKALPAPIEKTISKAKGQPREPQVYTLPPSRCELTKNQVSLSCAVKGFYPSDIAVEWESNGQPENNYKTTPPVLDSDGSFFLVSKLTVDKSRWQQGNVFSCSVMHEALHNHYTQKSLSLSPDYKDDDDK
chain: B1 chain
light: B1 light
B4: CE115HA000 Y100aQ one-arm antibody (antibody, human IgG1, kappa, L234A L235A, N297A, name in Kabat numbering)
heavy: B3 heavy with W106Y, Y107Q
chain: B1 chain
light: B1 light
B5: CE115HA000 Y100aA one-arm antibody (antibody, human IgG1, kappa, L234A L235A, N297A, name in Kabat numbering)
heavy: B3 heavy with W106Y, Y107A
chain: B1 chain
light: B1 light
B6: CE115HA000 Y100K one-arm antibody (antibody, human IgG1, kappa, L234A L235A, N297A, name in Kabat numbering)
heavy: B3 heavy with W106K
chain: B1 chain
light: B1 light
B7: CE115HA000 Y100aF one-arm antibody (antibody, human IgG1, kappa, L234A L235A, N297A, name in Kabat numbering)
heavy: B3 heavy with W106Y, Y107F
chain: B1 chain
light: B1 light
B8: CE115HA000 Y100P one-arm antibody (antibody, human IgG1, kappa, L234A L235A, N297A, name in Kabat numbering)
heavy: B3 heavy with W106P
chain: B1 chain
light: B1 light
B9: CE115HA000 Y100aG one-arm antibody (antibody, human IgG1, kappa, L234A L235A, N297A, name in Kabat numbering)
heavy: B3 heavy with W106Y, Y107G
chain: B1 chain
light: B1 light
B10: CE115HA000 Y100G one-arm antibody (antibody, human IgG1, kappa, L234A L235A, N297A, name in Kabat numbering)
heavy: B3 heavy with W106G
chain: B1 chain
light: B1 light
B11: 154R3A01#1 one-arm antibody (antibody, human IgG1, kappa, L234A L235A, N297A)
heavy: B2 heavy with L70F
chain: B1 chain
light: B1 light
B12: CE115HA000 Y100aS one-arm antibody (antibody, human IgG1, kappa, L234A L235A, N297A, name in Kabat numbering)
heavy: B3 heavy with W106Y, Y107S
chain: B1 chain
light: B1 light
B13: CE115HA000 Y100L one-arm antibody (antibody, human IgG1, kappa, L234A L235A, N297A, name in Kabat numbering)
heavy: B3 heavy with W106L
chain: B1 chain
light: B1 light
B14: CE115HA000 Y100V one-arm antibody (antibody, human IgG1, kappa, L234A L235A, N297A, name in Kabat numbering)
heavy: B3 heavy with W106V
chain: B1 chain
light: B1 light
B15: 154R4F08#1 one-arm antibody (antibody, human IgG1, kappa, L234A L235A, N297A)
heavy: B1 heavy with R16H
chain: B1 chain
light: B1 light
notes: As m48
B16: CE115HA000 Y100S one-arm antibody (antibody, human IgG1, kappa, L234A L235A, N297A, name in Kabat numbering)
heavy: B3 heavy with W106S
chain: B1 chain
light: B1 light
B17: CE115HA000 Y100Q one-arm antibody (antibody, human IgG1, kappa, L234A L235A, N297A, name in Kabat numbering)
heavy: B3 heavy with W106Q
chain: B1 chain
light: B1 light
B18: CE115HA000 Y100aL one-arm antibody (antibody, human IgG1, kappa, L234A L235A, N297A, name in Kabat numbering)
heavy: B3 heavy with W106Y, Y107L
chain: B1 chain
light: B1 light
B19: CE115HA000 Y100aD one-arm antibody (antibody, human IgG1, kappa, L234A L235A, N297A, name in Kabat numbering)
heavy: B3 heavy with W106Y, Y107D
chain: B1 chain
light: B1 light
B20: CE115HA000 Y100aK one-arm antibody (antibody, human IgG1, kappa, L234A L235A, N297A, name in Kabat numbering)
heavy: B3 heavy with W106Y, Y107K
chain: B1 chain
light: B1 light

Key:
[1] = target: T1, human CD154; assay: ECL competition, CD3ε[+]: CD3ε homodimer added as competitor [1]
Protocol: Next, each obtained IgG was evaluated for its binding to CD3 and human CD154 at the same time by the competition method (electrochemiluminescence method (ECL method)).
A TBST solution containing 0.5% BSA (referred to as a blocking solution; the TBST solution was TBS (manufactured by Takara Bio Inc.) supplemented with 0.1% Tween 20) was added at 150 μL/well to streptavidin plate (MSD K.K.), and the plate was incubated at room temperature for 1 hour or longer. After removal of the blocking solution, each well was washed three times with 250 μL of a TBST solution. The antibody-antigen complex solution was added thereto at 50 μL/well, and the plate was incubated at room temperature for 1 hour so that the biotinylated antigen-antibody-detection sulfo-tag antibody complex solution bound via the biotinylated antigen to the streptavidin plate. After removal of the antibody-antigen complex solution, each well was washed three times with a TBST solution, and a solution of 4×READ buffer (MSD K.K.) diluted 2-fold with water was added thereto at 150 μL/well, followed by the detection of the luminescence signal of the sulfo-tag using Sector Imager 2400 (MSD K.K.).

[2] = target: T2, CD3ε homodimer protein (human, UniProt P07766 23-126, limits assumed, sulfo-tag or biotin label in the ECL assays; amine-coupled to the chip in SPR); assay: SPR Biacore T200; CD3ε homodimer on CM4 chip;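 note: Single-residue variant antibodies injected as analyte over CD3ε homodimer immobilized by amine coupling, run at 25 °C in HBS-EP+ buffer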
T2 construct: also called human CD3ε homodimer protein; CD3 (CD3ε)
T2 sequence (P07766 23-126 limits assumed): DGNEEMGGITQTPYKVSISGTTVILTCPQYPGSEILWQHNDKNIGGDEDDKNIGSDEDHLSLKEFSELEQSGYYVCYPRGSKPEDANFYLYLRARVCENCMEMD

Binder	relative ECL reaction (to no antigen coating) [1]	ratio of amounts bound Z=Y/X (altered form / CE115HA000) [2]
B1	1	–
B2	4	–
B3	–	1.03
B4	–	0.56
B5	–	0.62
B6	–	1.07
B7	–	0.87
B8	–	0.48
B9	–	1.23
B10	–	1.07
B11	21	–
B12	–	0.64
B13	–	0.7
B14	–	0.6
B15	1	–
B16	–	0.81
B17	–	0.8
B18	–	0.48
B19	–	0.31
B20	–	0.9
